Laboratory results: publication PMC2775743, “Structural insights into the substrate tunnel of Saccharomyces cerevisiae carbonic anhydrase Nce103” (BMC Structural Biology, 2009)

Legend:
[1] = target: the molecule itself; assay: crystal structure; Nce103ΔN13, hanging drop vapor diffusion at 16°C; 20% PEG4000, 0.1 M sodium citrate pH 5.6, 0.1 M sodium acetate, 20% ethylene glycol; two molecules in the asymmetric unit; 2.04 Å
[2] = target: the molecule itself; assay: not stated; oligomeric state in solution, noted during purification (Ni2+ affinity, Superdex 75 gel filtration); how it was determined is not told

B1: Nce103ΔN13 (enzyme, S. cerevisiae, UniProt P53615 14-221, looked up)
chain: HNSNLQDILAANAKWASQMNNIQPTLFPDHNAKGQSPHTLFIGCSDSRYNENCLGVLPGEVFTWKNVANICHSEDLTLKATLEFAIICLKVNKVIICGHTDCGGIKTCLTNQREALPKVNCSHLYKYLDDIDTMYHEESQNLIHLKTQREKSHYLSHCNVKRQFNRIIENPTVQTAVQNGELQVYGLLYNVEDGLLQTVSTYTKVTPK
notes: Carbonic anhydrase Nce103 (β-class), S. cerevisiae strain S288C, ORF YNL036W, without the N-terminal 13 residues; residues His14 to Lys221; One zinc ion for each subunit; In the crystal the His tag, His14-Ser16 and Pro41-Gln48 are not seen in the density; also called truncated NCE103 without the N-terminal 13 residues; β-CA Nce103/YNL036W; source: for crystallization in 20 mM acetate buffer, pH …
[1]
  stoichiometry N: 2

B2: Nce103ΔN50 (enzyme, S. cerevisiae, UniProt P53615 51-221, looked up)
chain: HTLFIGCSDSRYNENCLGVLPGEVFTWKNVANICHSEDLTLKATLEFAIICLKVNKVIICGHTDCGGIKTCLTNQREALPKVNCSHLYKYLDDIDTMYHEESQNLIHLKTQREKSHYLSHCNVKRQFNRIIENPTVQTAVQNGELQVYGLLYNVEDGLLQTVSTYTKVTPK
notes: Carbonic anhydrase Nce103 (β-class), S. cerevisiae strain S288C, ORF YNL036W, residues His51-Lys221; the tag is probably N-terminal here too; also called truncated NCE103 without the N-terminal 50 residues
[2]
  stoichiometry N: 2
